Measured values from patent publication US20240076406A1, “SINGLE DOMAIN ANTIBODIES TARGETING CA-IX AS WELL AS COMPOSITIONS COMPRISING SAME” (National Research Council of Canada, priority 2021, published 2024).
Where two headings read alike, the source gives them in different places. Values belong to the molecule of their own block, whether it stands above or below them.

Experiments:
human CA-IX = human CA-IX (Homo sapiens, UniProt Q16790); experiment: ELISA species cross reactivity, human CA-IX; type: binding; conditions: 500 nM sdCA9-VHH
Protocol: (§1) Binding above background was measured in an ELISA assay for the binding of 500 nM of sdCA9-VHH antibodies to human CA-II, CA-IV, CA-IX, CA-XII and CA-XIV (isoform cross reactivity, upper panel), then CA-IX for mouse, human, cynomolgus monkey and dog (species cross reactivity, lower panel). (sdCA9-1-VHH ( ? ) and sdCA9-2-VHH ( ? )
(§2) Cross reactivity and CA-IX specificity. Binding specificity and species cross reactivity of two sdAb were tested in an ELISA assay using purified proteins for human, mouse, cynomolgus monkey and dog CA-IX.

[1] = biological target: T1, purified hCA-IX ECD dimer (Homo sapiens, UniProt Q16790); experiment: In vitro rhCA-IX enzyme activity inhibition (4Mu-Ac hydrolysis); type: biochemical; conditions: for IC50: 4Mu-Ac substrate; for inhibition of hCA-IX enzyme activity, in words: hCA-IX dimer, 4Mu-Ac hydrolysis
T1 construct: in vitro enzyme activity assay using purified hCA-IX ECD dimer
Protocol: In vitro rhCA-IX enzyme activity inhibition. In order to examine the functional consequence of the binding of the two sdCA9-VHH antibodies to hCA-IX ECD, antibodies were tested in an in vitro enzyme activity assay using purified hCA-IX ECD dimer and 4-Methylumbelliferyl acetate (4Mu-Ac) as substrate.

cyno CA-IX = experiment: ELISA species cross reactivity, cynomolgus monkey CA-IX; type: binding; conditions: 500 nM sdCA9-VHH
Protocol: as §1, §2

dimeric CA-IX = biological target: T2, dimeric CA-IX (Homo sapiens, UniProt Q16790); experiment: SPR binding affinity, VHH format, dimeric CA-IX; conditions: SPR data (FIG. 3A); monomer or dimer not specified
T2 construct: to the dimeric extracellular domain (ECD) of hCA-IX
Protocol: FIG. 3A is a graph showing the binding kinetics determined by surface plasmon resonance (SPR) for 3 CA-IX single domain antibodies (sdCA9-1, -2, -3-VHH) to the dimeric extracellular domain (ECD) of hCA-IX.
In vitro binding affinity/SPR. To evaluate the binding affinity (KD) of the VHH only format of the […] single domain antibodies, CA-IX monomer and dimer were immobilized on SA sensor chip (GE Healthcare) and serial dilutions of the sdAbs were injected over the surface (FIG. 3A). […] The two single domain antibodies sdCA9-1-VHH and sdCA9-2-VHH were selected for further characterizations.

[2] = system: 67NR^hCA-IX derived spheroids; experiment: Spheroid growth inhibition, 67NR^hCA-IX; type: cell-based, mouse; conditions: for spheroid growth, different concentrations: monitored for 8 days, compared with 67NR derived spheroids
Description: (§3) Spheroid growth inhibition.

dog CA-IX = dog CA-IX (Canis lupus familiaris, UniProt A0A8I3NCN1); experiment: ELISA species cross reactivity, dog CA-IX; type: binding; conditions: 500 nM sdCA9-VHH
Protocol: as §1, §2

[3] = system: hCA-IX negative parental 67NR spheroids; experiment: Spheroid growth inhibition, parental 67NR; type: cell-based, mouse; conditions: hCA-IX negative cells
Description: as §3

mouse CA-IX = mouse CA-IX (Mus musculus, UniProt Q8VHB5); experiment: ELISA species cross reactivity, mouse CA-IX; type: binding; conditions: 500 nM sdCA9-VHH
Protocol: as §1, §2

[4] = [inhibitor] vs. normalized response - variable slope
[5] = [inhibitor] vs. normalized response - variable slope, read-out: IC50 (best fit value)

Sequence of mouse CA-IX (Q8VHB5 32-437): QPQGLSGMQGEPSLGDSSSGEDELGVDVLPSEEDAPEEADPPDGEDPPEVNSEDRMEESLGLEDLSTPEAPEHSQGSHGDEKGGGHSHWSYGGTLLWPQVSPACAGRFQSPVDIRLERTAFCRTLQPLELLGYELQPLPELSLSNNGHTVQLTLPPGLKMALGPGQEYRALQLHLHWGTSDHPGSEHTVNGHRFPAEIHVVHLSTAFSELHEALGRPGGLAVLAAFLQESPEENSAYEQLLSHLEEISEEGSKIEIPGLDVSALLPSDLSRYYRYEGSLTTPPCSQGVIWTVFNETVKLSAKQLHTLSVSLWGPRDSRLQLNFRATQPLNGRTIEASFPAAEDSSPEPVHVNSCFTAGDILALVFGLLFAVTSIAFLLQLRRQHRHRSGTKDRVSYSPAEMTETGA
Sequence of dog CA-IX (A0A8I3NCN1 38-461): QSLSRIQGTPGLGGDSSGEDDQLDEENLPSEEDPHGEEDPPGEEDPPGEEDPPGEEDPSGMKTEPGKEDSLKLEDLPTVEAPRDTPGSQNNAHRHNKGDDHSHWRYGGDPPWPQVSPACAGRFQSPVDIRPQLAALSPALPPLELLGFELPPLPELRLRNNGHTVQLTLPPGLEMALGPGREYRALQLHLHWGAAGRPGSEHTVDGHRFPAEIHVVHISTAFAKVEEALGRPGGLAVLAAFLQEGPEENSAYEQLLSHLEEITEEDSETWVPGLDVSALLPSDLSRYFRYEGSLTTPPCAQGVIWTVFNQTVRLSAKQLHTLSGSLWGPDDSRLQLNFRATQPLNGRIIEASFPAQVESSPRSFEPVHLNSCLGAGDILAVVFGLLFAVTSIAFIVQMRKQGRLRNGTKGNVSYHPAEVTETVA

binding to human CA-IX (human CA-IX): selectively binds
HillSlope (best fit value) [1, 4]: −0.2974
IC50 [1, 5]: 48.4 nM
binding to cyno CA-IX (cyno CA-IX): selectively binds
binding to CA-IX by SPR, in words (dimeric CA-IX): bind with high affinity
B1: sdCA9-2-VHH: llama single domain antibody (VHH) binding CA-IX catalytic domain, amino acid sequence SEQ ID NO: 5 (protein)
VHH: QVKLEESGGDLVQPGGSLRLSCAASGFTLDYYAIGWFRQAPGKEREGVSCFSSVDGSTYYADSVKGRFTISRDNAKNMVYLQMNSLKPEDTAIYYCAAELYGELGVATVQAMCRLTTPGGDYWGQGTQVTVSS
modifications: Amino acid sequence for sdCA9-2-VHH
inhibition of hCA-IX enzyme activity, in words [1]: inhibited the hCA-IX enzyme activity to similar levels achieved by SMI U104
growth of spheroids over time ([2]; 100 μg/mL): specifically inhibits the growth of 67NR^hCA-IX spheroids over time
spheroid growth, different concentrations [2]: inhibited spheroid growth in a dose-dependent manner

binding to human CA-IX (human CA-IX): binds
HillSlope (best fit value) [1, 4]: −0.1194
IC50 [1, 5]: 111 nM
inhibition of hCA-IX enzyme activity, in words [1]: only partially
IC50 ([1]; hCA-IX-ECD dimer, read-out: IC50 values): ~100 nM
binding to dog CA-IX (dog CA-IX): binds
binding to cyno CA-IX (cyno CA-IX): binds
binding to CA-IX by SPR, in words (dimeric CA-IX): bind with high affinity
binding to mouse CA-IX (mouse CA-IX): binds
B2: sdCA9-1-VHH: llama single domain antibody (VHH) binding CA-IX catalytic domain, amino acid sequence SEQ ID NO: 1 (protein)
VHH: QVQLVESGGGLVQAGGSLRLSCAASGFTFDDWAIGWFRQAPGKEREGVSCISKRHGTTHYADSVKGRFTISSDNAKNTVYLRMNGLKPEDTAVYYCAASSWGSCTVATMRDVDRYDYDYWGQGTQVTVSS
modifications: Amino acid sequence for sdCA9-1- VHH
effect on parental 67NR spheroids [3]: hCA-IX non-specific phenotype
spheroid growth, different concentrations [2]: seemed not to be specific

B3: sdCA9-3-VHH: llama single domain antibody (VHH) binding CA-IX, amino acid sequence SEQ ID NO: 9 (protein)
VHH: QVQLVESGGGLVQAGDSLRLSCAASGGTFSRYGMGWFRQAPGKEREFVAAISGTGLNTYYMDSVKGRFTISRDNAENTVYLQMNSLKPEDTAVYYCARDRGGVEYDYWGQGTQVTVSS
modifications: A 118 amino acid sequence for CA9-3-VHH
binding to CA-IX by SPR, in words (dimeric CA-IX): binds with high affinity but less so than the other two
